Values quoted from earlier work, collected in article PMC9502310.

Biological target: IL-1β (Homo sapiens) (UniProt P01584)

B15 (from UniProt P25212)
Kd: 0.234 nM
